# Source: patent US20150093336A1 (VIB VZW, published 2015)
# T1: Recombinant human MMR (R&D systems) (human, UniProt P22897 19-1383)
# T1 construct: Antigen of the PE-ELISA and the SPR; also called hMMR; recombinant hMMR
# T1 sequence: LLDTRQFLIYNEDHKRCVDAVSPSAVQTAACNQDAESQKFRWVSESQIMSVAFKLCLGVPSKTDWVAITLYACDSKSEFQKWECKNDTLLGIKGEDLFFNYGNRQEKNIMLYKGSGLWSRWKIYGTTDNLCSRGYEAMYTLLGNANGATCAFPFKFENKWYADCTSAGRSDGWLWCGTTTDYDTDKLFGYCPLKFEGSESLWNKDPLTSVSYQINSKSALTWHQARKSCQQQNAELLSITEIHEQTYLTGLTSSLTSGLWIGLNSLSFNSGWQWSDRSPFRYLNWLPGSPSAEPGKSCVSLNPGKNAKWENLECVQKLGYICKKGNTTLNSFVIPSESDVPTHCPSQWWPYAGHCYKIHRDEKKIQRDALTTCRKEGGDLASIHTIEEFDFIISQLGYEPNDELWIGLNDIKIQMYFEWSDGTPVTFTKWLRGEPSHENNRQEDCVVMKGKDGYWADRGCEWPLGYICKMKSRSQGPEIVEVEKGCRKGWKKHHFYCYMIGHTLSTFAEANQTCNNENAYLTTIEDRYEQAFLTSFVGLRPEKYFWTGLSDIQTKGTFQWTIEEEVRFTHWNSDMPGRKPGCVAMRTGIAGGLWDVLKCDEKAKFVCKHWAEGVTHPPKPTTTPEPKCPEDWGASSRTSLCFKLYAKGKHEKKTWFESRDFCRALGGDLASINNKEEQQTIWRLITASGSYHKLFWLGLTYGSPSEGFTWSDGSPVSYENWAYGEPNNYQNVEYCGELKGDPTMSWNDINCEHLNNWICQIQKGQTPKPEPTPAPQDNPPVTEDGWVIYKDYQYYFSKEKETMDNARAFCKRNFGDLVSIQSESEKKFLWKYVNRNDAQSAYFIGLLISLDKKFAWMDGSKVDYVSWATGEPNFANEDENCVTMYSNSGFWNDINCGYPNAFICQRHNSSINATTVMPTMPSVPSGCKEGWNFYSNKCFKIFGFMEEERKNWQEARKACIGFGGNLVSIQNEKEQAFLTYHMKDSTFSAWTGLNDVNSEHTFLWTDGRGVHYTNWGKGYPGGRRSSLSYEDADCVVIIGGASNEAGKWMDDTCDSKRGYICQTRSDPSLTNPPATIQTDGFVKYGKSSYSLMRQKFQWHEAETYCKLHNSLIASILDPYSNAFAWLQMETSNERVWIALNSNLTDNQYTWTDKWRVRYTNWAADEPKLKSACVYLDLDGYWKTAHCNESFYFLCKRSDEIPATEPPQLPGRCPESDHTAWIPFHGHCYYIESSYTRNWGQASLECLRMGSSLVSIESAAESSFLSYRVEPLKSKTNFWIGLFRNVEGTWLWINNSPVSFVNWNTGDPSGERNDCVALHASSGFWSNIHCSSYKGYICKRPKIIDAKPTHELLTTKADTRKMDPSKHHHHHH
# T2: Recombinant mouse MMR (R&D systems) (mouse, UniProt Q61830 20-1388)
# T2 construct: Antigen of the PE-ELISA and the SPR; also called mMMR; recombinant mMMR
# T2 sequence: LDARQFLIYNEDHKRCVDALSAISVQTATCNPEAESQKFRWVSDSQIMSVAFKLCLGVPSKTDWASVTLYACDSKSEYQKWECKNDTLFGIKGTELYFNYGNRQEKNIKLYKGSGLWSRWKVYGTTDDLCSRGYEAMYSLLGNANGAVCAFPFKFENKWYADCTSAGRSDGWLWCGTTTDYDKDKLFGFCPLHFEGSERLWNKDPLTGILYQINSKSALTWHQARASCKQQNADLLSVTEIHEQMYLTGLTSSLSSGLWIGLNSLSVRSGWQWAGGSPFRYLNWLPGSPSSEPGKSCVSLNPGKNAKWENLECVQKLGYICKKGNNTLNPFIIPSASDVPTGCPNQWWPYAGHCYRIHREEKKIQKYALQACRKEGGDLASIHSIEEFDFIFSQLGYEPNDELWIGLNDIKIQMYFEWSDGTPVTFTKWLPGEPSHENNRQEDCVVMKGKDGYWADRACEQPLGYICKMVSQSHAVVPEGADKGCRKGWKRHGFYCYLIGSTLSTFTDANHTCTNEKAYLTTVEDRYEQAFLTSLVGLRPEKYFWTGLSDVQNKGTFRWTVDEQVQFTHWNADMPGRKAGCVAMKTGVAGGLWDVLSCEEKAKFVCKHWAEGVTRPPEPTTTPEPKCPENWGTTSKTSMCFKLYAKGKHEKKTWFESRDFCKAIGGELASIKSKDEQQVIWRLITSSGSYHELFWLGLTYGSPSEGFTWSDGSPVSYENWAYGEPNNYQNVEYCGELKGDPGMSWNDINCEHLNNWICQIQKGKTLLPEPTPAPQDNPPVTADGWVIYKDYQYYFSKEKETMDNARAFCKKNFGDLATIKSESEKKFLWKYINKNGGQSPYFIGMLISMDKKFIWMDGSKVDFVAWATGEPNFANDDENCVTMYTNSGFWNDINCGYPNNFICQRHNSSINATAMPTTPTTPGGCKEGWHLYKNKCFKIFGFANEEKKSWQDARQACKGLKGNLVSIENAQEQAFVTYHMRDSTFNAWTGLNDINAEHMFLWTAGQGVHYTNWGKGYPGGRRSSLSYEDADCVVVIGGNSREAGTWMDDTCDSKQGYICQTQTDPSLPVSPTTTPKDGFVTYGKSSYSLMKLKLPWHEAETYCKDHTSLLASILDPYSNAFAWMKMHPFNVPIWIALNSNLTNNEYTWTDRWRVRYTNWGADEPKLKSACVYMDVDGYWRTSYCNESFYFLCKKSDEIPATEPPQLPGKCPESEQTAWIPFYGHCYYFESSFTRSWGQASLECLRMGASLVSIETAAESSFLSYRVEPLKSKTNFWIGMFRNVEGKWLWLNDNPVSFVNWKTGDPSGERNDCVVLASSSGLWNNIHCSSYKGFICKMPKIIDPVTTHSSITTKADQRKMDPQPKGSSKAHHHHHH
# Legend:
# [1] = biological target: T1, Recombinant human MMR (R&D systems); assay: SPR, BIAcore T100; human MMR on CM5 chip, sdAb as analyte
# Procedure: (§1) Affinity analysis was performed using a BIAcore™ T100 (GE Healthcare) with HEPES-buffered saline running buffer (10 mM HEPES with 0.15 M NaCl, 3.4 mM EDTA and 0.005% surfactant P20 at pH 7.4). MRR was immobilized on a CM5 chip in acetate buffer 50 mM (pH 5.0), resulting in 2100 RU MMR coated on the chip. A second channel on the same chip was activated/deactivated in a similar way and served as a negative control. The MMR sdAbs were used as analytes in eleven different concentrations, ranging from 1 to 2000 nM, at a flow rate of […]. Glycine-HCl 50 mM (pH 2.0) was used for elution. The kinetic and equilibrium parameters (kd, ka and KD) values were calculated from the combined sensogram of all concentrations using BIAcore™ T100 evaluation software 2.02 (GE Healthcare).
# (§2) The binding characteristics and affinity of selected Nbs towards the recombinant hMMR and recombinant mMMR antigen was examined in further detail using surface plasmon resonance. A combined sensogram was recorded for each Nb (example for NbhmMMRm3.49 in FIG. 5) and the kinetic and equilibrium parameters (kd, ka and KD) values were calculated (Table 4 and Table 5). Most but not all results on binding to mouse or human rMMR obtained via this SPR analysis are in agreement with the results obtained by PE-ELISA.
# [2] = biological target: T2, Recombinant mouse MMR (R&D systems); assay: SPR, BIAcore T100; mouse MMR on CM5 chip, sdAb as analyte
# Procedure: as §1, §2
Binder,Kd [1] [nM],koff [1] [s⁻¹],kon [1] [M⁻¹ s⁻¹],Kd [2] [nM],koff [2] [s⁻¹],kon [2] [M⁻¹ s⁻¹],binding result [2]
"NbhmMMRm17.72 (VHH, Produced from pMECS with C-terminal HA and 6xHis tag) VHH: QVQLQESGGGLVQPGGSLRLSCAASGSIVSINAMGWYRQAPGKQRELVALVTGSGRTNLADSVKGRFTISRDNAKNTVYLQMNSLKPEDTAVYYCNVLVIGPLEGYDYWGQGTQVTVSS",19,0.0012,62000,,,,
"NbhmMMRm24.31 (VHH, Produced from pMECS with C-terminal HA and 6xHis tag) VHH: QVQLQESGGGLVQPGGSLRLSCTATGFTLKNHHIGWLRQAPGKEREGVASINSSGGSTNYADSVQGRFTISRDNAKNTVFLQMNSLKSEDTAVYYCARLRRYYGLNLDPGSYDYWGQGTQVTVSS",2.7,0.00069,260000,74,0.0021,28000,
"NbhMMRm5.38 (VHH, Produced from pMECS with C-terminal HA and 6xHis tag; also called NbhmMMRm5.38; Nb5.38) VHH: QVQLQESGGGLVQAGGSLRLSCAASGFTDDDYDIGWFRQAPGKEREGVSCISSSDGSTYYADSVKGRFTISSDNAKNTVYLQMNSLKPEDTAVYYCAADFFRWDSGSYYVRGCRHATYDYWGQGTQVTVSS",3.3,0.00066,200000,25,0.0033,130000,
"NbhmMMRm21.22 (VHH, Produced from pMECS with C-terminal HA and 6xHis tag; also called NbhMMRm21.22) VHH: QVQLQESGGGLVQAGGSLRLSCAASGRTFSSAAMGWFRQAPGKEREPVALINLDDGETYYADIAKGRFTLSKDNAKNSVYLQMNSLKPEDTAVYYCAVRGRFDDNYEYWGQGTQVTVSS",3.6,0.0012,340000,,,,
"NbhMMRm3.1 (VHH, Produced from pMECS with C-terminal HA and 6xHis tag; also called NbhmMMRm3.1) VHH: QVQLQESGGGLVQPGGSLRLSCAASGFTLDYYAIGWFRQAPGKEREGISCISYKGGSTTYADSVKGRFTISKDNAKNTAYLQMNNLKPEDTGIYYCAAGFVCYNYDYWGPGTQVTVSS",3.4,0.00074,220000,19,0.004,210000,
"NbhmMMRm3.49 (VHH, Produced from pMECS with C-terminal HA and 6xHis tag; also called NbhMMRm3.49) VHH: QVQLQESGGGLVQPGGSLRLSCAASGFSLDYYAIGWFRQAPGKEREGISCISYKGGSTTYADSVKGRFTISKDNAKNTAYLQMNSLKPEDTGIYSCAAGFVCYNYDYWGQGTQVTVSS",1.8,0.0008,440000,12,0.0036,290000,
"NbhmMMRm6.71 (VHH, Produced from pMECS with C-terminal HA and 6xHis tag) VHH: QVQLQESGGGLVQAGGSLRLSCAASGGTFDDSVIGWFRQAPGKEREGVSCISSNDGTTHYASPVKGRFTISSDNAKNTVYLQMNSLKPEDTAVYYCAAETPSIGSPCTSASYDYWGQGTQVTVSS",5.6,0.0011,190000,,,,
"NbhMMRm15.43 (VHH, Produced from pMECS with C-terminal HA and 6xHis tag) VHH: QVQLQESGGTLVQPGGSLRLSCAASGSTFSINNMGWYRQAPGKQRELVAGITGGNTHYADSVKGRFTISRDNAKNTMYLQMNGLKPEDTAVYYCNANWGAYWGQGTQVTVSS",270,0.0059,22000,44,0.0013,29000,
"NbhmMMRm15.49 (VHH, Produced from pMECS with C-terminal HA and 6xHis tag) VHH: QVQLQESGGGLVQAGGSLRLSCAASGSTFSINNMGWYRQAPGKQRELVAGITGGNTHYADSVKGRFTISRDNAKNTMYLQMNSLKPEDTAVYYCNANWGAYWGQGTQVTVSS",290,0.0061,21000,44,0.0013,29000,
"NbhmMMRm26.70 (VHH, Produced from pMECS with C-terminal HA and 6xHis tag) VHH: QVQLQESGGGLVQPGGSLRLSCTASGFPFSSAPMSWVRQAPGKELEWVSYIGYTGTITDYANSVKGRFTISRDNAKNRLYLQMNSLKPEDTAVYFCAQGYARLIADSDLVRGQGTQVTVSS",13,0.0073,580000,1.9,0.0013,690000,
"NbhMMRm23.30 (VHH, Produced from pMECS with C-terminal HA and 6xHis tag) VHH: QVQLQESGGGLVQAGDSLSISCAASGDTFNHYSWGWFRQAPGKAREFVAAISWNGGSKYADSVKGRFAISRDIAKNTVSLQMNSLEPEDTAVYYCAADRRPYNDWWDDWSWWVYWGQGTQVTVSS",,,,,,,no binding (tested: analyte 1 to 2000 nM)
"NbhmMMRm22.84 (VHH, Produced from pMECS with C-terminal HA and 6xHis tag) VHH: QVQLQESGGGLVQPGGSLRLSCAASGRTFSNYVNYAMGWFRQFPGKEREFVASISWSSVTTYYADSVKGRFTISRDNAKNTVYLQMNSLKPEDTAVYYCAAHLAQYSDYAYRDPHQFGAWGQGTQVTVSS",38,0.0019,49000,130,0.004,30000,
